Results: publication PMC11189300

Legend:
[1] = target: Mis12C^M3 (human), Q9H081
[2] = target: Mis12C^M4 (human), Q9H081
Chain of Mis12C^M4 (human), Q9H081 (Q9H081 whole entry, chain 1 of 4): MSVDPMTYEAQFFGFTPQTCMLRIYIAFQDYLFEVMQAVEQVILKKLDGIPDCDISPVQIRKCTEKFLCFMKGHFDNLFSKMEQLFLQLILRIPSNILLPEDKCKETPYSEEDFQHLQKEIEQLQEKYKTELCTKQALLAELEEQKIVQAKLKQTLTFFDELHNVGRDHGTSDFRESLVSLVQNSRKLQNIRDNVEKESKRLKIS
Chain of Mis12C^M4 (human), Q9H081 (Q6P1K2 whole entry, chain 2 of 4, further chain): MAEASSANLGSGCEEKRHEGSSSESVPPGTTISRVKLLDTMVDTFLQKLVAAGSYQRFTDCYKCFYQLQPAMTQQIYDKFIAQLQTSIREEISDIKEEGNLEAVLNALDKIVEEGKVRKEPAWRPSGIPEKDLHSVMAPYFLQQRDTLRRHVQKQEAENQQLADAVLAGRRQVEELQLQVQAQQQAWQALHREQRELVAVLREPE
Chain of Mis12C^M4 (human), Q9H081 (Q96IY1 whole entry, chain 3 of 4, further chain): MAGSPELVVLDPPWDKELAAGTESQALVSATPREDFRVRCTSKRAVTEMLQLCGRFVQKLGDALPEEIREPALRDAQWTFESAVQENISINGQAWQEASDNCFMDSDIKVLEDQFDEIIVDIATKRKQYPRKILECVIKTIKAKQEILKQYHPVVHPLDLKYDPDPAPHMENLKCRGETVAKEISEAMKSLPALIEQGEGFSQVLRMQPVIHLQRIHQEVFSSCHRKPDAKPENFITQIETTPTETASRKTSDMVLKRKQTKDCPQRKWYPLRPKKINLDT
Chain of Mis12C^M4 (human), Q9H081 (Q9H410 whole entry, chain 4 of 4, further chain): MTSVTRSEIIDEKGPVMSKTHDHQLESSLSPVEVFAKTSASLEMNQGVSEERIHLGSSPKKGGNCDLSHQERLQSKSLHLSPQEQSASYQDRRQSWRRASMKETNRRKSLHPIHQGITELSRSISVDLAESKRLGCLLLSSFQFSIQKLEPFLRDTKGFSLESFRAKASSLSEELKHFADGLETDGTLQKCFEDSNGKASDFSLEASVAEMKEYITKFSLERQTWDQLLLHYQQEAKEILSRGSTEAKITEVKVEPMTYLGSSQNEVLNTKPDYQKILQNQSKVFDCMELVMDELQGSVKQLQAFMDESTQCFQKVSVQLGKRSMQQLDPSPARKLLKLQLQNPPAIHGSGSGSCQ

Chain of Mis12C^M3 (human), Q9H081 (Q9H081 whole entry, chain 1 of 4): as the sequence (Q9H081 whole entry, chain 1 of 4) above
Chain of Mis12C^M3 (human), Q9H081 (Q6P1K2 whole entry, chain 2 of 4, further chain): as the sequence (Q6P1K2 whole entry, chain 2 of 4, further chain) above
Chain of Mis12C^M3 (human), Q9H081 (Q96IY1 whole entry, chain 3 of 4, further chain): as the sequence (Q96IY1 whole entry, chain 3 of 4, further chain) above
Chain of Mis12C^M3 (human), Q9H081 (Q9H410 whole entry, chain 4 of 4, further chain): as the sequence (Q9H410 whole entry, chain 4 of 4, further chain) above

B1: Ndc80 complex (Ndc80C): NDC80^HEC1, NUF2, SPC24, SPC25, O14777 1-642; Q9BZD4 1-464; Q8NBT2 1-197; Q9HBM1 1-224 (complex)
chain 1: MKRSSVSSGGAGRLSMQELRSQDVNKQGLYTPQTKEKPTFGKLSINKPTSERKVSLFGKRTSGHGSRNSQLGIFSSSEKIKDPRPLNDKAFIQQCIRQLCEFLTENGYAHNVSMKSLQAPSVKDFLKIFTFLYGFLCPSYELPDTKFEEEVPRIFKDLGYPFALSKSSMYTVGAPHTWPHIVAALVWLIDCIKIHTAMKESSPLFDDGQPWGEETEDGIMHNKLFLDYTIKCYESFMSGADSFDEMNAELQSKLKDLFNVDAFKLESLEAKNRALNEQIARLEQEREKEPNRLESLRKLKASLQGDVQKYQAYMSNLESHSAILDQKLNGLNEEIARVELECETIKQENTRLQNIIDNQKYSVADIERINHERNELQQTINKLTKDLEAEQQKLWNEELKYARGKEAIETQLAEYHKLARKLKLIPKGAENSKGYDFEIKFNPEAGANCLVKYRAQVYVPLKELLNETEEEINKALNKKMGLEDTLEQLNAMITESKRSVRTLKEEVQKLDDLYQQKIKEAEEEDEKCASELESLEKHKHLLESTVNQGLSEAMNELDAVQREYQLVVQTTTEERRKVGNNLQRLLEMVATHVGSVEKHLEEQIAKVDREYEECMSEDLSENIKEIRDKYEKKATLIKSSEE
chain 2: METLSFPRYNVAEIVIHIRNKILTGADGKNLTKNDLYPNPKPEVLHMIYMRALQIVYGIRLEHFYMMPVNSEVMYPHLMEGFLPFSNLVTHLDSFLPICRVNDFETADILCPKAKRTSRFLSGIINFIHFREACRETYMEFLWQYKSSADKMQQLNAAHQEALMKLERLDSVPVEEQEEFKQLSDGIQELQQSLNQDFHQKTIVLQEGNSQKKSNISEKTKRLNELKLSVVSLKEIQESLKTKIVDSPEKLKNYKEKMKDTVQKLKNARQEVVEKYEIYGDSVDCLPSCQLEVQLYQKKIQDLSDNREKLASILKESLNLEDQIESDESELKKLKTEENSFKRLMIVKKEKLATAQFKINKKHEDVKQYKRTVIEDCNKVQEKRGAVYERVTTINQEIQKIKLGIQQLKDAAEREKLKSQEIFLNLKTALEKYHDGIEKAAEDSYAKIDEKTAELKRKMFKMST
chain 3: MAAFRDIEEVSQGLLSLLGANRAEAQQRRLLGRHEQVVERLLETQDGAEKQLREILTMEKEVAQSLLNAKEQVHQGGVELQQLEAGLQEAGEEDTRLKASLLQLTRELEELKEIEADLERQEKEVDEDTTVTIPSAVYVAQLYHQVSKIEWDYECEPGMVKGIHHGPSVAQPIHLDSTQLSRKFISDYLWSLVDTEW
chain 4: MVEDELALFDKSINEFWNKFKSTDTSCQMAGLRDTYKDSIKAFAEKLSVKLKEEERMVEMFLEYQNQISRQNKLIQEKKDNLLKLIAEVKGKKQELEVLTANIQDLKEEYSRKKETISTANKANAERLKRLQKSADLYKDRLGLEIRKIYGEKLQFIFTNIDPKNPESPFMFSLHLNEARDYEVSDSAPHLEGLAEFQENVRKTNNFSAFLANVRKAFTATVYN
Work on B1 yielded a kinetochore levels of endogenous Ndc80C (NDC80^HEC1 immunofluorescence) in HeLa cells depleted of endogenous Mis12C and electroporated with the mutant Mis12C [1] of 50 % reduction and a kinetochore levels of endogenous Ndc80C (NDC80^HEC1 immunofluorescence) in HeLa cells depleted of endogenous Mis12C and electroporated with the mutant Mis12C [2] of 50 % reduction.
